Test results: IntAct's records for PubMed 24469400

B1: Syntaxin-4 (Rattus norvegicus (Rat)), Q08850 (parent)
chain: MRDRTHELRQGDNISDDEDEVRVALVVHSGAARLSSPDDEFFQKVQTIRQTMAKLESKVRELEKQQVTILATPLPEESMKQGLQNLREEIKQLGREVRAQLKAIEPQKEEADENYNSVNTRMKKTQHGVLSQQFVELINKCNSMQSEYREKNVERIRRQLKITNAGMVSDEELEQMLDSGQSEVFVSNILKDTQVTRQALNEISARHSEIQQLERSIRELHEIFTFLATEVEMQGEMINRIEKNILSSADYVERGQEHVKIALENQKKARKKKVMIAICVSVTVLILAVIIGITITVG

Variants of: B1
Conditions: with vamp2_rat Vamp2, P63045
vamp2_rat Vamp2, P63045, sequence (P63045 whole entry): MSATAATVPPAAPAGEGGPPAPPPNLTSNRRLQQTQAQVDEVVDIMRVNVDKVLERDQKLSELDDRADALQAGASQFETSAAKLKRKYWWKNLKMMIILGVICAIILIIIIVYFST

effect of a mutation on the interaction	Variant
increasing interaction strength	L173A;E174A
